Test results published in US20210139574A1.

Target: Tau seeds: brain fraction from transgenic mice expressing human Tau P301S (human), P10636
Assay: cell-based or functional assay

Chain of Tau seeds: brain fraction from transgenic mice expressing human Tau P301S (human), P10636 (P10636 other isoform, or with tags, fused parts or gaps P301S P301S): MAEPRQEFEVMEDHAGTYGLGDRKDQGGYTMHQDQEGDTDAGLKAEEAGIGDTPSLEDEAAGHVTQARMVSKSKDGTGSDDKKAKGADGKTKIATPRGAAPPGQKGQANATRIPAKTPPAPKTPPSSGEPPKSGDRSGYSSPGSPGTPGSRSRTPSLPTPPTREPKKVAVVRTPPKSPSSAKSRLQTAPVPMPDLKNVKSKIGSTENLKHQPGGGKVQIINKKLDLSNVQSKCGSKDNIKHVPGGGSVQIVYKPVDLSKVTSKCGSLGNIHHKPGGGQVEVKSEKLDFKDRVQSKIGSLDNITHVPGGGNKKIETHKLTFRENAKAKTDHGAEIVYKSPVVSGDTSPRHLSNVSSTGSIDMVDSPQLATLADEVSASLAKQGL

IC50, cellular Tau aggregation assay: 8 nM
Imax (maximal efficacy at 300 nM), cellular Tau aggregation assay: 62%
B1: AB1 having a murinised VL of SEQ ID NO: 9 and a murinised VH of SEQ ID NO.: 10 (antibody, V domains shown)
VL: DVVMTQSPASLAVSLGQRATISCQASQSVSSYLAWYQQKPGQPPKLLIYAASYLASGVPSRFKGSGSGTEFTLNIHPVEEEDAATYYCQQGYTRTDIDNTFGGGTKLEIK
VH: QVQLKESGPGLVAPSQSLSITCTVSGIDLSTWRMNWVRQPPGKGLEWIGIIGTGGRTYYANWAKGRFSISKDSTQVFLKMNSLQTEDTATYFCARLGANNNGYPLDLWGAGTTVTVSS
